From PMC7102964 come the findings set out here.

What all share (experiment): BLI
What all share (conditions): none stated (T7 transcript); 3' end periodate-oxidised for biotin hydrazide; BLI (Octet RED96), biotin-tRNA on streptavidin tips: 50 mM Tris-HCl pH 8.0, 150 mM NaCl, 0.002% Tween-20, 25 C; 1:1 model

The test system of series [1] is OSGEPL1 (mature, delta-MTS) (Homo sapiens).
In series [2] the test system is OSGEPL1-K203A (Homo sapiens).
Series [3] deals with OSGEPL1-K203E (Homo sapiens).
Series [4] concerns OSGEPL1-K203Q (Homo sapiens).
In series [5] the test system is OSGEPL1-K203R (Homo sapiens).
Series [6] concerns OSGEPL1-K299Q (Homo sapiens).

With hmtRNAThr, the Kd in series [1] came out at 6.7 µM; in series [2] it was 29 µM; in series [3] it was 8.5 µM; in series [4], 14 µM; in series [5] it was 3.6 µM; in series [6], 6.8 µM.

In turn, hmtRNAThr-U34G registered a Kd in series [1] of 4.1 µM.

With hmtRNAThr-U34C, the Kd in series [1] is 5.5 µM.
